The results in this text go back to PMC4980433 (Molecular Cell, 2016).

Residue numbers refer to the chain shown, from its start. Numbers in names are those of the source.

The target in one data set is T1, TNKS SAM Y1073A, O95271.
T1 chain: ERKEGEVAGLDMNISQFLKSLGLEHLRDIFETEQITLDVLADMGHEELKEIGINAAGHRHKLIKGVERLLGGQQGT
As to the kind of experiment: ITC. Particulars: chain shown with the change; N = 0.72±0.01.

The target in a further data set is TNKS SAM Y1073A (human, UniProt O95271 1018-1093, Y1073A^T1). In words: ITC. In general terms: In ITC the heat of successive injections is recorded.
Data set [1] concerns the molecule itself. As to the kind of experiment: crystal structure; SAM domain mutants crystallized; head-to-tail (EH-ML) filaments in the crystals; molecular replacement.
Data set [2] concerns the molecule itself. In words: ultracentrifugation sedimentation assay; purified SAM domains (25 μM) centrifuged at an average 200,000 x g, 20°C, 1 hr; total, supernatant and pellet on SDS-PAGE with Coomassie staining; polymers partition into the pellet; proteins of Figure 5A affinity purified.

One may read the Kd as the free concentration of one partner at which half of the binding sites on the other are occupied at equilibrium, for simple one-to-one binding. Low values mean tighter binding, high ones weaker binding.

B1: TNKS SAM V1056W (domain or fragment)
chain: T1 chain with V39W, A56Y
As to B1, in the data set with TNKS SAM Y1073A, O95271, the Kd was 820 nM, the other: ΔH was -6 kcal/mol and the other: ΔS is 7.7 cal/mol/deg. The same molecule displayed a Kd with TNKS SAM Y1073A of 860 nM.

B2: TNKS SAM D1055R (domain or fragment, human, UniProt O95271 1018-1093, looked up)
chain: T1 chain with D38R, A56Y
notes: SAM domain of human Tankyrase (TNKS), residues 1018-1093, with D1055R; Polymer-breaking mutant used for crystallization (two crystal forms); also called TNKS D1055R^T1 SAM domain
In the case of B2, the binding result in data set [1] is reported as “binds”.

B3: TNKS2 SAM domain (867-940), wild type (domain or fragment, human, UniProt Q9H2K2 867-940, looked up)
chain: EKKEVPGVDFSITQFVRNLGLEHLMDIFEREQITLDVLVEMGHKELKEIGINAYGHRHKLIKGVERLISGQQGL
notes: SAM domain of human Tankyrase 2 (TNKS2, ARTD6), residues 867-940; Forms polydisperse polymers (filaments); theoretical MW about 9 kDa; also called TNKS2 WT
As for B3, the binding result in data set [2] is listed as “binds”.
